T1: purified PSCA-Fc (human, UniProt O43653 12-83, limits assumed)
T1 construct: not shown: Fc part
T1 sequence: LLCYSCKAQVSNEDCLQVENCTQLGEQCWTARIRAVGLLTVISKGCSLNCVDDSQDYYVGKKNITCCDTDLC


Target: T1, purified PSCA-Fc
Test: competition ELISA, wells coated with purified PSCA-Fc; reference is the parental 2B3 minibody
Procedure: The ranking of the four minibodies was determined by competition ELISA and flow cytometry (FIG. 5).
Competition ELISA: PSCA relative binding affinity for the minibodies was determined by competition ELISA in which microtiter plate wells were coated with purified PSCA-Fc (Olafsen T, et al. J. Irrununotherapy 2007: 30:396).

improvement of relative affinity compared to the parental	Binder
4.4 fold	A2 anti-PSCA minibody (other, also called A2 minibody; variant A2) DIQLTQSPSSLSASVGDRVTITCSASSSVRFIHWYQQKPGKAPKRLIYDTSKLASGVPSRFSGSGSGTDFTLTISSLQPEDFATYYCQQWGSSPFTFGQGTKVEIKGSTSGGGSGGGSGGGGSEVQLVESGGGLVQPGGSLRLSCAASGFNIKDYYIHWVRQAPGKGLEWVAWIDPEYGDSEFVPKFQGRATMSADTSKNTAYLQMNSLRAEDTAVYYCKTGGFWGRGTLVTVSSEPKSCDKTHTCPPCGGGSSGGGSGGQPREPQVYTLPPSRDELTKNQVSLTCLVKGFYPSDIAVEWESNGQPENNYKTTPPVLDSDGSFFLYSKLTVDKSRWQQGNVFSCSVMHEALHNHYTQKSLSLSPGK
3 fold	A11 anti-PSCA minibody (other, also called A11 minibody; variant A11) DIQLTQSPSTLSASMGDRVTITCSASSSVRFIHWYQQKPGKAPKRLIYDTSKLASGVPSRFSGSGSGTDFTLTISSLQPEDFATYYCQQWGSSPFTFGQGTKVEIKGSTSGGGSGGGSGGGGSSEVQLVEYGGGLVQPGGSLRLSCAASGFNIKDYYIHWVRQAPGKGLEWVAWIDPENGDTEFVPKFQGRATMSADTSKNTAYLQMNSLRAEDTAVYYCKTGGFWGQGTLVTVSSEPKSCDKTHTCPPCGGGSSGGGSGGQPREPQVYTLPPSRDELTKNQVSLTCLVKGFYPSDIAVEWESNGQPENNYKTTPPVLDSDGSFFLYSKLTVDKSRWQQGNVFSCSVMHEALHNHYTQKSLSLSPGK
1.9 fold	C5 anti-PSCA minibody (other, also called C5 minibody; variant C5) DIQLIQSPSSLSASVGDRVTITCSASSSVRFIHWYQQKPGKAPKRLIYDTSKLASGVPSRFSGSGSGTDFTLTISSLQPEDFATYYCQQWSSSPFTFGQGTKVEIKGSTSGGGSGGGSGGGGSSEVQLVESGGGLVQPGGSLRLSCAASGFNIKDYYIHWVRQAPGKGLEWVAWIDPENGDTEFVPKFQGRATISADTSKNTVYLQMNSLRAKDTAVYYCKTGGFWGQGTLVTVSSEPKSCDKTHTCPPCGGGSSGGGSGGQPREPQVYTLPPSRDELTKNQVSLTCLVKGFYPSDIAVEWESNGQPENNYKTTPPVLDSDGSFFLYSKLTVDKSRWQQGNVFSCSVMHEALHNHYTQKSLSLSPGK

Source: US20150239983A1 (University of California, published 2015)
